In doi:10.1101/798371 (bioRxiv, 2019):
“And” between values parts separate entries of the source, which are not always exact repeats. Equal entries are not always repeated. Where two headings read alike, the source gives them in different places.

B1: Tom40 (natural protein, S. cerevisiae, UniProt P23644 1-387, looked up)
chain: MSAPTPLAEASQIPTIPALSPLTAKQSKGNFFSSNPISSFVVDTYKQLHSHRQSLELVNPGTVENLNKEVSRDVFLSQYFFTGLRADLNKAFSMNPAFQTSHTFSIGSQALPKYAFSALFANDNLFAQGNIDNDLSVSGRLNYGWDKKNISKVNLQISDGQPTMCQLEQDYQASDFSVNVKTLNPSFSEKGEFTGVAVASFLQSVTPQLALGLETLYSRTDGSAPGDAGVSYLTRYVSKKQDWIFSGQLQANGALIASLWRKVAQNVEAGIETTLQAGMVPITDPLMGTPIGIQPTVEGSTTIGAKYEYRQSVYRGTLDSNGKVACFLERKVLPTLSVLFCGEIDHFKNDTKIGCGLQFETAGNQELLMLQQGLDADGNPLQALPQL
B2: core TOM complex (monomeric unit: Tom40, Tom22, Tom5, Tom6, Tom7) (complex, S. cerevisiae)
chain 1: B1 chain
chain 2: MVELTEIKDDVVQLDEPQFSRNQAIVEEKASATNNDVVDDEDDSDSDFEDEFDENETLLDRIVALKDIVPPGKRQTISNFFGFTSSFVRNAFTKSGNLAWTLTTTALLLGVPLSLSILAEQQLIEMEKTFDLQSDANNILAQGEKDAAATAN
chain 3: MFGLPQQEVSEEEKRAHQEQTEKTLKQAAYVAAFLWVSPMIWHLVKKQWK
chain 4: MDGMFAMPGAAAGAASPQQPKSRFQAFKESPLYTIALNGAFFVAGVAFIQSPLMDMLAPQL
chain 5: MSFLPSFILSDESKERISKILTLTHNVAHYGWIPFVLYLGWAHTSNRPNFLNLLSPLPSV
B3: Tom7 (natural protein, S. cerevisiae, UniProt P53507 1-60, looked up)
chain: B2 chain 5
B4: Tom6 (natural protein, S. cerevisiae, UniProt P33448 1-61, looked up)
chain: B2 chain 4
B5: Tom22 (natural protein, S. cerevisiae, UniProt P49334 1-152, looked up)
chain: B2 chain 2

Columns and labels:
cryo-EM structure [1] = molecular target: the molecule itself; experiment: cryo-EM structure
cryo-EM structure [2] = molecular target: the molecule itself; experiment: cryo-EM structure; remark: listed apart in the source
SEC = molecular target: the molecule itself; experiment: SEC
Tom40 [3] = molecular target: B1; experiment: cryo-EM structure
Tom22 = molecular target: B5; experiment: cryo-EM structure
Tom40 [4] = molecular target: B1; experiment: cryo-EM structure; remark: listed apart in the source

## B1
cryo-EM structure [1]
  binding result: binds

## B2
cryo-EM structure [2]
  stoichiometry N: 4 and 3
SEC
  stoichiometry N: 2

## B3
Tom40 [3]
  binding result: binds

## MFGLPQQEVSEEEKRAHQEQTEKTLKQAAYVAAFLWVSPMIWHLVKKQWK (natural protein, S. cerevisiae, UniProt P80967 1-50, looked up) [Tom5]
Tom22
  binding result: binds
Tom40 [3]
  binding result: binds

## B4
cryo-EM structure [2]
  binding result: binds
Tom40 [3]
  binding result: binds

## B5
Tom40 [4]
  binding result: binds
